# B1: SIVmac capsid N-terminal domain (CA^NTD) (domain or fragment)
# chain: not shown
# modifications: No candidate fits. The accession (SIVmac Gag, isolate Mm142-83) is from memory because the isolate is not printed. Limits are CA residues 1-144, matching HIV-1 CA 1-146 (pdb 1M9D entity 2). Check …
# Target: T1, cyclophilin A (CypA), human (human, UniProt P62937 1-165)
# T1 construct: human cyclophilin A (peptidyl-prolyl cis-trans isomerase A)
# Assay: ITC; recombinant CypA or Nup358Cyp against recombinant CA^NTD, without cyclosporine; done as described in ref. 25
# Conditions: both partners purified
binder,measurement,value
B1,Kd,~800 µM

# From article PMC3234246, “HIV-1 Capsid-Cyclophilin Interactions Determine Nuclear Import Pathway, Integration Targeting and Replication Efficiency” (PLoS Pathogens, 2011)
